The chains are these.
B2: mouse His-PABP-RRM1–4 (amino acids 1–375) (domain or fragment, UniProt P29341 1-375, looked up)
chain: MNPSAPSYPMASLYVGDLHPDVTEAMLYEKFSPAGPILSIRVCRDMITRRSLGYAYVNFQQPADAERALDTMNFDVIKGKPVRIMWSQRDPSLRKSGVGNIFIKNLDKSIDNKALYDTFSAFGNILSCKVVCDENGSKGYGFVHFETQEAAERAIEKMNGMLLNDRKVFVGRFKSRKEREAELGARAKEFTNVYIKNFGEDMDDERLKELFGKFGPALSVKVMTDESGKSKGFGFVSFERHEDAQKAVDEMNGKELNGKQIYVGRAQKKVERQTELKRKFEQMKQDRITRYQGVNLYVKNLDDGIDDERLRKEFSPFGTITSAKVMMEGGRSKGFGFVCFSSPEEATKAVTEMNGRIVATKPLYVALAQRKEERQ
notes: Vector was a gift from Lorna Waters; source: bacterially expressed, purified (Ni-NTA)

For test [1], the target named is B2. Nature of the test: pull-down; GST fusion protein-loaded sepharose beads incubated with purified, bacterially expressed His-PABP-RRM1–4; western blotting with PABP antibodies or Coomassie staining; also in the absence or presence of 0.5 μg/ml RNase A. The settings on record: both partners purified. On the technique in general: Immunoblotting shows a protein as a band on a membrane.

Test [2] deals with T1, GST-Pdcd4 (full-length human Pdcd4 fused to GST) (human, UniProt Q53EL6 1-469).
T1 construct: programmed cell death 4 (Pdcd4), human, full length; also called GST-Pdcd4-wt; pGex-6P2-hPdcd4wt; source: purified
T1 sequence (looked up): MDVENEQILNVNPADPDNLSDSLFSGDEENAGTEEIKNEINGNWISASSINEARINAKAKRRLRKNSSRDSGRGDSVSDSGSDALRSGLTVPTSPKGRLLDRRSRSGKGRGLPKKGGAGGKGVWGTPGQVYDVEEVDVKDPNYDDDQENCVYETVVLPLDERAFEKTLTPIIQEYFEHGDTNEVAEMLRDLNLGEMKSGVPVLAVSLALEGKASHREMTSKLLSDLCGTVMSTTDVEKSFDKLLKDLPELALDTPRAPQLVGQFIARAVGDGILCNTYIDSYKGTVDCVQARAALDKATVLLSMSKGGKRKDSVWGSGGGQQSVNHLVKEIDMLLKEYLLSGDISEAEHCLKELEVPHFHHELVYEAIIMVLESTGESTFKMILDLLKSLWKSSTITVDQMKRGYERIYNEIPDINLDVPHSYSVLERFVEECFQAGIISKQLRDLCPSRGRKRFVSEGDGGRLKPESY
The test is described as above. The settings on record: both partners purified.

Two molecules from article PMC4176178, “An evolutionarily conserved interaction of tumor suppressor protein Pdcd4 with the poly(A)-binding protein contributes to translation suppression by Pdcd4” (Nucleic Acids Research, 2014) can be followed below.

B1: GST-Pdcd4-RBDstop (only the N-terminal RNA-binding domain of human Pdcd4) (domain or fragment, UniProt Q53EL6 1-154, looked up)
chain: MDVENEQILNVNPADPDNLSDSLFSGDEENAGTEEIKNEINGNWISASSINEARINAKAKRRLRKNSSRDSGRGDSVSDSGSDALRSGLTVPTSPKGRLLDRRSRSGKGRGLPKKGGAGGKGVWGTPGQVYDVEEVDVKDPNYDDDQENCVYET
notes: translation stop codon introduced at amino acid position 155; The last residue 154 follows from the stop codon at position 155; also called pGex-6P2-hPdcd4-RBDstop; source: purified
In the case of B1, in test [1], the binding result is recorded as “binds”.
On to B2, for which the binding result in test [2] is given as “binds”.
